Literature values, collected in article PMC6526119.

Target: Hsp90 (Saccharomyces cerevisiae) (UniProt P02829)

Kd: 60 nM
Substance: Hsp90 (from UniProt P02829)
